In experiment [1] the target is T1, human SIRPα variant 1 (human, UniProt P78324 31-504).
T1 construct: full length ORF on transfected CHO-K1 or HEK293 cells; entry includes the signal peptide; also called hSIRPαV1; SIRPαV1
The experiment can be described thus: CELISA, CHO-K1 transfectants. As to the method: (§1) The specificity of monoclonal anti-hSIRPα antibodies (e.g., including the hSIRPα antibodies known in the art, KWAR23 (U.S. Patent CA2939293 A1), 18D5 (Patent WO2017/178653 A2), and various commercially available hSIRPα antibodies) for binding to hSIRPαV1, hSIRPαV1(P74A), and hSIRPβ1 was evaluated by CELISA. Reactivity was confirmed using CHO-K1 cells (ATCC CCL-61) expressing a cDNA encoding the full length open reading frame of hSIRPαV1, hSIRPαV1(P74A), and hSIRPβ1 subcloned into the pCI-neo vector (Promega, Madison, Wis.). CHO-K1.hSIRPαV1, CHO-K1.hSIRPαV1(P74A), and CHO-K1.hSIRPβ1 cells were seeded in culture medium (DMEM-F12 (Gibco) supplemented with 5% New Born Calf Serum (BioWest) and Pen/Strep (Gibco)) in 96-well flat-bottom tissue culture plates and incubated at 37° C., 5% CO₂ and 95% humidity for 24 hours. Subsequently, culture medium was removed and cells were incubated for 1 hour at 37° C., 5% CO₂ and 95% humidity with purified hSIRPα antibodies (used at 10 μg/ml and dilutions thereof). Next, cells were washed with PBS-T and incubated for 1 hour at 37° C., 5% CO₂ and 95% humidity with either goat-anti-mouse IgG-HRP (Southern Biotech), goat-anti-human IgG-HRP (Jackson Immuno Research), or goat-anti-rabbit IgG-HRP (Southern Biotech). Subsequently, cells were washed three times with PBS-T and immunoreactivity against hSIRPαV1, hSIRPαV1(P74A), and hSIRPβ1 was visualized with TMB Stabilized Chromogen (Invitrogen). Reactions were stopped with 0.5 M H₂SO₄ and absorbances were read at 450 and 610 nm.

The target in experiment [2] is T1, human SIRPα variant 1. The experiment can be described thus: CELISA, CHO-K1 transfectants, point mutant study. As to the method: Amino acids in the hSIRPα IgV domain that are altered in hSIRPβ1 were mutated by using the QuikChange II Site-Directed Mutagenesis Kit (Stratagene) and the full length hSIRPαV1 sequence (SEQ ID NO: 33) as donor cDNA. Binding of hSIRPα.40A to hSIRPαV1 point mutants was tested using CELISA. To this end, CHO-K1 cells were transiently transfected, using Lipofectamine 2000, with cDNA encoding the full length open reading frame of hSIRPαV1 and mutants thereof, and hSIRPβ1 subcloned into the pCI-neo vector. Transfected cells were seeded in culture medium (DMEM-F12 (Gibco) supplemented with 5% New Born Calf Serum (BioWest) and Pen/Strep (Gibco)) in 96-well flat-bottom tissue culture plates and incubated at 37° C., 5% CO₂ and 95% humidity for 24 hours. Subsequently, culture medium was removed and cells were incubated for 1 hour at 37° C., 5% CO₂ and 95% humidity with purified hSIRPα antibodies (used at 10 μg/mL and dilutions thereof). Next, cells were washed with PBS-T and incubated for 1 hour at 37° C., 5% CO₂ and 95% humidity with goat-anti-mouse IgG-HRP (Southern Biotech). Subsequently, cells were washed three times with PBS-T and immunoreactivity against hSIRPαV1, hSIRPαV1 mutants, and hSIRPβ1 was visualized with TMB Stabilized Chromogen (Invitrogen). Reactions were stopped with 0.5 M H₂SO₄ and absorbances were read at 450 and 610 nm. […]

The target of a further experiment is T2, human SIRPα variant 2 (human, UniProt P78324 31-504).
T2 construct: full length ORF on transfected CHO-K1 cells; also called hSIRPαV2; SIRPαV2
Nature of the experiment: CELISA, CHO-K1 transfectants. As to the method: as §1, with “Reactivity” for “The specificity of monoclonal anti-hSIRPα antibodies (e.g., including the hSIRPα antibodies known in the art, KWAR23 (U.S. Patent CA2939293 A1), 18D5 (Patent WO2017/178653 A2), and various commercially available hSIRPα antibodies) for binding to hSIRPαV1, hSIRPαV1(P74A), and hSIRPβ1 was evaluated by CELISA. Reactivity”, “hSIRPαV1(P74A), hSIRPαV2,” for “hSIRPαV1(P74A),”, “CHO-K1.hSIRPαV1(P74A), CHO-K1.hSIRPαV2,” for “CHO-K1.hSIRPαV1(P74A),”, “μg/mL” for “μg/ml”, “with” for “with either”, “goat-anti-mouse” for “goat-anti-mouse IgG-HRP (Southern Biotech), goat-anti-human IgG-HRP (Jackson Immuno Research), or goat-anti-rabbit”

Experiment [3] has as its target T1, human SIRPα variant 1. The experiment can be described thus: CELISA, CHO-K1 transfectants. As to the method: as §1, with “Reactivity” for “The specificity of monoclonal anti-hSIRPα antibodies (e.g., including the hSIRPα antibodies known in the art, KWAR23 (U.S. Patent CA2939293 A1), 18D5 (Patent WO2017/178653 A2), and various commercially available hSIRPα antibodies) for binding to hSIRPαV1, hSIRPαV1(P74A), and hSIRPβ1 was evaluated by CELISA. Reactivity”, “hSIRPαV1(P74A), hSIRPαV2,” for “hSIRPαV1(P74A),”, “CHO-K1.hSIRPαV1(P74A), CHO-K1.hSIRPαV2,” for “CHO-K1.hSIRPαV1(P74A),”, “μg/mL” for “μg/ml”, “with” for “with either”, “goat-anti-mouse” for “goat-anti-mouse IgG-HRP (Southern Biotech), goat-anti-human IgG-HRP (Jackson Immuno Research), or goat-anti-rabbit”
The source holds these as a separate data set.

Data on 3 molecules can be found in patent US20180312587A1 (ADURO BIOTECH HOLDINGS EUROPE B V, published 2018).

T2 sequence (P78324 other isoform, or with tags, fused parts or gaps mutant limits assumed): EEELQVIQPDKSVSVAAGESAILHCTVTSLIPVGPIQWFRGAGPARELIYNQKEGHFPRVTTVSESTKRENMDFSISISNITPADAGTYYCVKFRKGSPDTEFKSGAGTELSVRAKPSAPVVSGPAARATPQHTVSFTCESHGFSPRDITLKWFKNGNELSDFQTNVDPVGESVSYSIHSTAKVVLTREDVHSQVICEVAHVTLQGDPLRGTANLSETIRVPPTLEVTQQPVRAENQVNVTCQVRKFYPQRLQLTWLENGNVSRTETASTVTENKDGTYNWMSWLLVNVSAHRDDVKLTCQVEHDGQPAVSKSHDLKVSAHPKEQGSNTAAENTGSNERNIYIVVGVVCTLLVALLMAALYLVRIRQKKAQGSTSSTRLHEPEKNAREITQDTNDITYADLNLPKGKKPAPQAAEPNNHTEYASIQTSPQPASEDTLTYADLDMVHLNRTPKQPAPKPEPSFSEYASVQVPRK
T1 sequence (P78324 31-504 limits assumed, change not shown): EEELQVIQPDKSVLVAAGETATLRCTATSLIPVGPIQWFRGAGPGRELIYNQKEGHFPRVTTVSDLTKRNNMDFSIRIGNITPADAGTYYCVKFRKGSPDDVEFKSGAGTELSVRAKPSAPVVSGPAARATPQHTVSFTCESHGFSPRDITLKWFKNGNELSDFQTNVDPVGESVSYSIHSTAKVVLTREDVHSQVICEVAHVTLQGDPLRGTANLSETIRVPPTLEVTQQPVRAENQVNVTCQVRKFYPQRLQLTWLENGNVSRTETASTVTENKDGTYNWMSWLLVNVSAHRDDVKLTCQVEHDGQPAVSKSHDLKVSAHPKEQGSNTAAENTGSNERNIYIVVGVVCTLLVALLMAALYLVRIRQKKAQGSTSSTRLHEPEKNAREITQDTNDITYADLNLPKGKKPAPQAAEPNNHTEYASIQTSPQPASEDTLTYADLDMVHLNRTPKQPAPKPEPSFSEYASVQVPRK

B1: hSIRPα.50A (antibody, V domains shown)
VH: QVQLQQSGPELVKPGASVRISCKASGFTFTNYYIHWVKQRPGQGLEWIGWIYPGNVNTKYNEKFKAKATLTADKSSTTAYMQLSSLASEDSAVYFCARPTIIATDFDVWGAGTTVTVSS
VL: DIVMTQSHKFMSTSVGDRVNITCKASQGVGTAVGWYQQKPGQSPRLLIYWASTRHTGVPDRFTGSGSGTDFSLAISNVQSEDLADYFCQQYSTYPFTFGGGTNLEIK
notes: light chain constant domain not tied; also called mouse hSIRPα.50A; hSIRPα.50A.mIgG1
Turning to B1, the EC50 came out at 307 pM with human SIRPα variant 1 [1], 534 pM with human SIRPα variant 1 [2], 645 pM with human SIRPα variant 2 and 773 pM with human SIRPα variant 1 [3].

B2: hSIRPα.40A (antibody, mouse IgG1, kappa, V domains shown)
VH: EVQFQQSGTVLARPGTSVKMSCKASGSTFTSYWMHWVKQGPGQGLQWIGAIYPVNNDTTYNQKFKGKAELTVVTSTSTAYMEVSSLTNEDSAVYYCTRSFYYSLDAAWFVYWGQGTLVTVSA
VL: DIQMTQSPSSLSASLGERVSLTCRASQDIGSRLNWLQQEPDGTIKRLIYATSSLDSGVPKRFSGSRSGSDYSLTISGLESEDFVDYYCLQYASSPFTFGGGTKLEINR
notes: mouse antibody, full chains without signal peptide; also called mouse hSIRPα.40A
Consider B2, for which the EC50 with human SIRPα variant 1 [1] stood at 53 pM; with human SIRPα variant 1 [2], 65 pM; in the experiment with human SIRPα variant 2, 93 pM; with human SIRPα variant 1 [3], 114 pM.

B3: KWAR23 (antibody, V domains shown)
VH: EVQLQQSGAELVKPGASVKLSCTASGFNIKDYYIHWVQQRTEQGLEWIGRIDPEDGETKYAPKFQDKATITADTSSNTAYLHLSSLTSEDTAVYYCARWGAYWGQGTLVTVSS
VL: QIVLTQSPAIMSASPGEKVTLTCSASSSVSSSYLYWYQQKPGSSPKLWIYSTSNLASGVPARFSGSGSGTSYSLTISSMEAEDAASYFCHQWSSYPRTFGAGTKLELK
Regarding B3, the figures for the EC50 in the experiment with human SIRPα variant 1 [1], with human SIRPα variant 2 and in the experiment with human SIRPα variant 1 [3] were 135 pM, 49 pM and 70 pM, respectively.
